The numbers were not newly measured in PMC8393563, which cites them from elsewhere.

pKd: −log10 of the molar value.

This data set deals with PGRMC1 (Homo sapiens) (UniProt O00264).

A word on the pKd: it is −log10 of the Kd, conventionally taken in molar units. In the case of PGRMC1 (from UniProt O00264), the negative-log Kd (pKd) is above 5.46.
